This is an account of results in patent US20040235764A1.

For the assay, the target named is fibronectin. The assay can be described thus: cell-based or functional assay.

As to “integrin α3β1 (from UniProt Q62470 33-1053; P09055 21-798) (receptor)”, the cell adhesion assay: attached F9 cells counted on fibronectin-coated wells after co-transfection with dsRNA integrin α3; reduction against F9 wild-type and co-transfection controls was 40%.
